{"source": "patent US20240261333A1", "about": "(published 2024)", "experiment_in_all_cases": "co-IP, anti-FLAG, lysate of cells with C-FLAG B3GNT2; mass spectrometry", "key": {"HNRNPA2B1": {"target": "T1, HNRNPA2B1 (human, UniProt P22626-2 1-341)", "T1 construct": "also called NP_002128.1 (+1)", "T1 sequence (P22626 other isoform, or with tags, fused parts or gaps limits assumed)": "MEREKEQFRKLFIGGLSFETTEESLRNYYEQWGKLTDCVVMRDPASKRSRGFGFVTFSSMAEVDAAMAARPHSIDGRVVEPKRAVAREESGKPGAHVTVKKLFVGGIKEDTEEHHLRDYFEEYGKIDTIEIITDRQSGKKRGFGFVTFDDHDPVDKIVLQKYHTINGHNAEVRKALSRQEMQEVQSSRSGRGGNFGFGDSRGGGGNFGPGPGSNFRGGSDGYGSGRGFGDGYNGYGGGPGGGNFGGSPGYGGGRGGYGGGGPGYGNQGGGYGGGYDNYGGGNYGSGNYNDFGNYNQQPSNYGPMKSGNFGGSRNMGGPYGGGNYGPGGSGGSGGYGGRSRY"}, "ATXN2": {"target": "T2, ATXN2 (human, UniProt Q99700 1-1313)", "T2 construct": "also called NP_002964.3", "T2 sequence (Q99700 whole entry)": "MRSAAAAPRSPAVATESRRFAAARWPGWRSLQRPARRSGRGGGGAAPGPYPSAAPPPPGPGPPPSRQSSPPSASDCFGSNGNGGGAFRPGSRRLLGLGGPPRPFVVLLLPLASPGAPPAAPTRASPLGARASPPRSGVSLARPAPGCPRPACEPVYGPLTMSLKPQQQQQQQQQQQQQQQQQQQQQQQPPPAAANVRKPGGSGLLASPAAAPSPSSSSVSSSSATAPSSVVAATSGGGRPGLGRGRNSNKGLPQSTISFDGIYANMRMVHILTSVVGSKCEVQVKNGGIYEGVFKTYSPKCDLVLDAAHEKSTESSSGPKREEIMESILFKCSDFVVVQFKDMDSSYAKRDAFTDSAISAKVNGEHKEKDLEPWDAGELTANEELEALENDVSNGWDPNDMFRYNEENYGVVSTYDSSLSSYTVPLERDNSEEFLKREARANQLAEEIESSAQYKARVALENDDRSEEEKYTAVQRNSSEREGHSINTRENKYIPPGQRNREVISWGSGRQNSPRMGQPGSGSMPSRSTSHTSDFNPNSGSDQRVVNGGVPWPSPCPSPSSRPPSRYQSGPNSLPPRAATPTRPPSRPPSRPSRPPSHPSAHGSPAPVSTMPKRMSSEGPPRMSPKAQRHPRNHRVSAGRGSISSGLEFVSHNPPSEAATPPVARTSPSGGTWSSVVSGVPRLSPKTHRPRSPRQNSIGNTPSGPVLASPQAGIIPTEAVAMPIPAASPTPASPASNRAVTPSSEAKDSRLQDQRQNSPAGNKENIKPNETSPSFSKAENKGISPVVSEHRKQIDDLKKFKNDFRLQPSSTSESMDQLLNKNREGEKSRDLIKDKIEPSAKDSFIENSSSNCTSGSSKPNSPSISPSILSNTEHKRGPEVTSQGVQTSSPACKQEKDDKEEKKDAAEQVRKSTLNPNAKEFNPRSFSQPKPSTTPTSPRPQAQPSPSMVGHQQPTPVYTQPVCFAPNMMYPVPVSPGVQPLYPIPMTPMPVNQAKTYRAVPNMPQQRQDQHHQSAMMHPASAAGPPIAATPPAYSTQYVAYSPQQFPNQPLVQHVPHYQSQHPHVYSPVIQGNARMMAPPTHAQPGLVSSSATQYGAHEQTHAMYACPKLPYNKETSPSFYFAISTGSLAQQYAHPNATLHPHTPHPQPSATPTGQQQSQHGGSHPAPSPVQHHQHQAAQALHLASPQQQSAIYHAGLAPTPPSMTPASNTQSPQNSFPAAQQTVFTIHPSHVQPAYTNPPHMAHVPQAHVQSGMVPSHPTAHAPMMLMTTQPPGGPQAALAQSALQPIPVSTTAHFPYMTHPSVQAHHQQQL"}, "SAMM50": {"target": "T3, SAMM50 (human, UniProt Q9Y512 1-469)", "T3 construct": "also called NP_056195.3", "T3 sequence (looked up)": "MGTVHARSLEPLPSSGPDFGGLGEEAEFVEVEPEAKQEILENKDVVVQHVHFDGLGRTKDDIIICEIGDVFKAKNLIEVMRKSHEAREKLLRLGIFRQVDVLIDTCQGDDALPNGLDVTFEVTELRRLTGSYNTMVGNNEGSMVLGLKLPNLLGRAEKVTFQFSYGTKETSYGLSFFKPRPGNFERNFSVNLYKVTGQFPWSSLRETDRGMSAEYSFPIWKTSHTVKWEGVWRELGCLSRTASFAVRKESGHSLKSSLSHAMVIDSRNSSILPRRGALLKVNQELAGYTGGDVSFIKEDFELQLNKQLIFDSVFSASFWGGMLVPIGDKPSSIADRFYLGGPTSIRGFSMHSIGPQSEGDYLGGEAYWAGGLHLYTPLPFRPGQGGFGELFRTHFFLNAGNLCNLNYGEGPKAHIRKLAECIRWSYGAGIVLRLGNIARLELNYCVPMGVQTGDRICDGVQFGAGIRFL"}, "NUFIP2": {"target": "T4, NUFIP2 (human, UniProt Q7Z417 1-695)", "T4 construct": "also called NP_065823.1", "T4 sequence (looked up)": "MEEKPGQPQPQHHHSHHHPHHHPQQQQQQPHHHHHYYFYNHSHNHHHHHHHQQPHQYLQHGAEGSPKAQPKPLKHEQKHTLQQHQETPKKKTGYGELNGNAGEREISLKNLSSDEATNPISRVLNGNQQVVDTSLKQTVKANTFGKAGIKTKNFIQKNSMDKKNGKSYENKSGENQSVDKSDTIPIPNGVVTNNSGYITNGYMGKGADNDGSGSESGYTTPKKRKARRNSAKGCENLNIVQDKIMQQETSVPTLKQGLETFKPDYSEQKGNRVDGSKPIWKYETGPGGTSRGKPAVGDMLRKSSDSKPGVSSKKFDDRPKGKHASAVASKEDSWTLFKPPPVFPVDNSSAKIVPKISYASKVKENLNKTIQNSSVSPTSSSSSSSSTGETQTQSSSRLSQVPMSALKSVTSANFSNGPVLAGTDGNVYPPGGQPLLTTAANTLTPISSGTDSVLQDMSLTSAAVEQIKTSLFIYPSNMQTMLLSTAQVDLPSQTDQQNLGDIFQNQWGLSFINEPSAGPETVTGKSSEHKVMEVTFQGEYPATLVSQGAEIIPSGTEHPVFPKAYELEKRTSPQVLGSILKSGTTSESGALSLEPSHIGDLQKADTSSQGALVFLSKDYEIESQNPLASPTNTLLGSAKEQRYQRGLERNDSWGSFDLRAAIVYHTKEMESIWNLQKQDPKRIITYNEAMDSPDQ"}, "G3BP1": {"target": "T5, G3BP1 (human, UniProt Q13283 2-466)", "T5 construct": "also called NP_005745.1", "T5 sequence (Q13283 2-466 limits assumed)": "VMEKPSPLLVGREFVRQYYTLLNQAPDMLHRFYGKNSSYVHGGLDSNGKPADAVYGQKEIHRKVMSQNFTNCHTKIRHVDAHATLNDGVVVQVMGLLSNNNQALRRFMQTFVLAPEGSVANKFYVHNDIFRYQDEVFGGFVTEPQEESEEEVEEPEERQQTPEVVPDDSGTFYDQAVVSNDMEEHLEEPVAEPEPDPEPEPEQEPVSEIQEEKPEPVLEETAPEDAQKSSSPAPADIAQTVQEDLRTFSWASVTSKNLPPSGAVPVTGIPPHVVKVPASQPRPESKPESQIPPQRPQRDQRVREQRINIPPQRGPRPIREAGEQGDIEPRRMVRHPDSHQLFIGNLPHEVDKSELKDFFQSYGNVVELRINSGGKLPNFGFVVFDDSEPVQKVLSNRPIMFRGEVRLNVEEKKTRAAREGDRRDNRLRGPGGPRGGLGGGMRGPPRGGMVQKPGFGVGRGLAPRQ"}, "MYH11": {"target": "T6, MYH11 (human, UniProt P35749-3 1-1945, limits assumed)", "T6 construct": "also called NP_001035202.1 (+4)", "T6 sequence (P35749 other isoform, or with tags, fused parts or gaps limits assumed)": "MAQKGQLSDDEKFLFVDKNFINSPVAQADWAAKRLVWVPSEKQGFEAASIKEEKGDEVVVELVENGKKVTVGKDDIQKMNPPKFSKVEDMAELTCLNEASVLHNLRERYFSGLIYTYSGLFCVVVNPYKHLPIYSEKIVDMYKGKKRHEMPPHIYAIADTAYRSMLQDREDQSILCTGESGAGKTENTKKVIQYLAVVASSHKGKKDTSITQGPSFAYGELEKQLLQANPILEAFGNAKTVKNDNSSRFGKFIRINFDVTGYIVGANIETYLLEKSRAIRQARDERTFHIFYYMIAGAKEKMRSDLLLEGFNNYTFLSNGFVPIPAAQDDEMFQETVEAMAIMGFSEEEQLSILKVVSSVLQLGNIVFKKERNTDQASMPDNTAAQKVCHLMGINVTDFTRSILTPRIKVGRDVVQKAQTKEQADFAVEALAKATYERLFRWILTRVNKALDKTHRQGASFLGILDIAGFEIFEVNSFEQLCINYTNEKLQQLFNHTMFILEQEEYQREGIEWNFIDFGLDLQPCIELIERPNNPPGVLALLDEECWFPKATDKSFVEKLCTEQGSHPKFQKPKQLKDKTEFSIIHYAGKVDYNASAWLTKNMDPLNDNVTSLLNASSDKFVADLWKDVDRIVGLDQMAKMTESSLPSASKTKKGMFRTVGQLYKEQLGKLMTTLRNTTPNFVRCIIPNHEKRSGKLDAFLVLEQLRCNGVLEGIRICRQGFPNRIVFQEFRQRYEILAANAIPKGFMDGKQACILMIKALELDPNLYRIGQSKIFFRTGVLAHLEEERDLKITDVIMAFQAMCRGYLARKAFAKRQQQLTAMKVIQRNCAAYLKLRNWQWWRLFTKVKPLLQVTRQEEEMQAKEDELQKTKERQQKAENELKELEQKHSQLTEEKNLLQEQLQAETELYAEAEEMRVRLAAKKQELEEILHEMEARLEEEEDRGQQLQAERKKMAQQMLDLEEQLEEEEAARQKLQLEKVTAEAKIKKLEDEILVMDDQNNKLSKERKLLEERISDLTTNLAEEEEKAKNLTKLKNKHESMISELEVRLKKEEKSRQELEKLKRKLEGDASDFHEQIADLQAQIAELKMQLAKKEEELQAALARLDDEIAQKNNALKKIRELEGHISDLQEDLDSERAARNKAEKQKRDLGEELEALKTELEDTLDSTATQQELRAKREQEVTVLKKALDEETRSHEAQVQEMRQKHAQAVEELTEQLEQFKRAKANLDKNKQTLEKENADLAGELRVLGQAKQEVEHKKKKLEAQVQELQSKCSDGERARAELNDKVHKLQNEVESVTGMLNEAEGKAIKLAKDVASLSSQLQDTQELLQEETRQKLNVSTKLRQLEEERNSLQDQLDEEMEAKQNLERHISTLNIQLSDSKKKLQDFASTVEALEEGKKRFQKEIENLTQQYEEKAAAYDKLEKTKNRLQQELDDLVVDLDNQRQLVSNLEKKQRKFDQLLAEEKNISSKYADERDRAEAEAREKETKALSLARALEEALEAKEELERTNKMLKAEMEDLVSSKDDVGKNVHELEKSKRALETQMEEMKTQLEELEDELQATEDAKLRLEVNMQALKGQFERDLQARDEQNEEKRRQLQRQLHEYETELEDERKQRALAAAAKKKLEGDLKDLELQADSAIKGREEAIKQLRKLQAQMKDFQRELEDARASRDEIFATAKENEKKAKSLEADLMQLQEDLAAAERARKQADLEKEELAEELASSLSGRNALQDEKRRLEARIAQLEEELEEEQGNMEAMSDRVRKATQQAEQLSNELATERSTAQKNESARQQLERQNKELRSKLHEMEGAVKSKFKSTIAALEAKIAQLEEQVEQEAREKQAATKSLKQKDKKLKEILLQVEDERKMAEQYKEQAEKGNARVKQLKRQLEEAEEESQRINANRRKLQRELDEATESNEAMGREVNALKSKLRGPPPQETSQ"}, "C1orf68": {"target": "T7, C1orf68 (human, UniProt Q5T750 1-250)", "T7 construct": "also called NP_001019850.1", "T7 sequence (Q5T750 whole entry)": "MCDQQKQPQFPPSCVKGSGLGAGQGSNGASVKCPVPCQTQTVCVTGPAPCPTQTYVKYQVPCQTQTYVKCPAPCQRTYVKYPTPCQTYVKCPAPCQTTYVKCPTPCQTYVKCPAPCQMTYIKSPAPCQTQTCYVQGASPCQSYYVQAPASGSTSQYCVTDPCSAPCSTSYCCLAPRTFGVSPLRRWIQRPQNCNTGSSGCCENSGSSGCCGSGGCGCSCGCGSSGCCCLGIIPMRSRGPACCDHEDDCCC"}, "HUWE1": {"target": "T8, HUWE1 (human, UniProt Q7Z6Z7 1-4374)", "T8 construct": "also called NP_113584.3 (+11)"}}}
{"binder": "C-terminal FLAG tagged B3GNT2 (enzyme, human, UniProt Q9NY97 1-397, looked up, Overexpressed in cells and pulled down from the lysate with mouse anti-FLAG antibody; also called C-FLAG B3GNT2; C-term flag; not shown: C-terminal FLAG tag) MSVGRRRIKLLGILMMANVFIYFIMEVSKSSSQEKNGKGEVIIPKEKFWKISTPPEAYWNREQEKLNRQYNPILSMLTNQTGEAGRLSNISHLNYCEPDLRVTSVVTGFNNLPDRFKDFLLYLRCRNYSLLIDQPDKCAKKPFLLLAIKSLTPHFARRQAIRESWGQESNAGNQTVVRVFLLGQTPPEDNHPDLSDMLKFESEKHQDILMWNYRDTFFNLSLKEVLFLRWVSTSCPDTEFVFKGDDDVFVNTHHILNYLNSLSKTKAKDLFIGDVIHNAGPHRDKKLKYYIPEVVYSGLYPPYAGGGGFLYSGHLALRLYHITDQVHLYPIDDVYTGMCLQKLGLVPEKHKGFRTFDIEEKNKNNICSYVDLMLVHSRKPQEMIDIWSQLQSAHLKC", "values": [{"measurement": "co-IP mass spectrometry count", "setting": "HNRNPA2B1", "value": 8}, {"measurement": "co-IP mass spectrometry count", "setting": "ATXN2", "value": 3}, {"measurement": "co-IP mass spectrometry count", "setting": "SAMM50", "value": 0}, {"measurement": "co-IP mass spectrometry count", "setting": "NUFIP2", "value": 5}, {"measurement": "co-IP mass spectrometry count", "setting": "G3BP1", "value": 33}, {"measurement": "co-IP mass spectrometry count", "setting": "MYH11", "value": 7}, {"measurement": "co-IP mass spectrometry count", "setting": "C1orf68", "value": 2}, {"measurement": "co-IP mass spectrometry count", "setting": "HUWE1", "value": 0}]}
